{"source": "a protein production outcome set (Wang et al. 2014)", "data": [{"experiment": "label from the status in PepcDB records", "values": [{"sequence": "MLELLYTALLYLIQPLIWIRLWVRGRKAPAYRKRWGERYGFYRRPLKPGGIMLHSVSVGETLAAIPLVRALRHRYPDLPITVTTMTPTGSERVQSAFGNDVQHVYLPYDLPDALNRFLNKIDPKLVLIMETELWPNLIAALHKRHIPLVIANARLSARSAAGYAKLGKFVRTLLRRITLIAAQNEEDGERFVALGAKNNQVTVTGSLKFDISVTPQLAAKAVTLRRQWAPHRPVWIATSTHDGEESIVIAAHQALLHQFPNLLLILVPRHPERFPDAINLVRQAGLSYITRSSGEVPSASTQVVVGDTMGELMLLYGIADLAFVGGSLVERGGHNPLEAAAHAIPVLMGPHTFNFKDICARLDQASGLITITDAATLAKEVSSLLTDADYRNFYGRHAVEVLYQNQGALQRLLQLLEPYLPPKTHLEHHHHHH", "protein production": "failed"}, {"sequence": "MLETSSHFLKSFRLKRYIGFLLISLALLITPFVRIDGAHLFLISFEHKQLHFLGKIFSAEELQVMPFMVILLFIGIFFITTSLGRVWCGWACPQTFLRVLYRDVIETKIFKLHKKISNKQESPKNTPSYKIRKVLSVLLFAPVVAGLMMLFFFYFIAPEDFFMYLKNPSDHPIAMGFWLFSTAVVLFDIVVVAERFCIYLCPYARVQSVLYDNDTLNPIYDEKRGGALYNNQGHLFPLPPKKRSPENECVNCLHCVQVCPTHIDIRKGLQLECINCLECVDACTITMAKFNRPSLIQWSSTNAINTRQKVHLVRLKTIAYMGVIAIVIALLAITSFKKERMLLDINRNSDLYELRSSGYVDNDYVFLFHNTDNKDHEFYFKVLGQKDIQIKKPLNPIAIKAGQKIKAVVILRKPLKSNATEYKNAKDALIPITIQAYSADDKNITIERESVFIAPSED", "protein production": "failed"}, {"sequence": "MLETVAGVTIGASCIILTIALTKKLGPEWAWINRKLIHLSIIPAALFFYYGIIPREIFSPAAALFGIAQLLAHVKNRELNWYQLKQNYGEVFFAFSASFITFVFPRDYASALLLVMAISDGVTGIIRHYYFKRNGFNVKLKKHWTGSLGYIITAIIIAVAFLDGNIIEKVGWAFILMLAEYQPWIDDNLAVPLVGSALYFLY", "protein production": "failed"}, {"sequence": "MLETYALKNGAVFISDAHFLPKSPHLIHTLKELLSAKPPQVFFMGDIFHVLVGYLPLDKEQQKIIDLIHALSEISQVFYFEGNHDFSMRFVFNSKVMVFERQNQPVLFQYDNKRFLLAHGDLFITKAYEFYITQLTSTWARFFLTFLNLLSFKTLYPLFKKLIYQKPVRLWELEPKELQSFIEKRLKAYQNYIKDLNIGSIDGIIEGHFHLKSGAKIPLNTPIYCPLPSFYYEQSLFKVSSSVLEPSQNKDA", "protein production": "failed"}, {"sequence": "MLEVHIPSVGPEAEGPRQSPEKSHMVFRVEVLCSGRRHTVPRRYSEFHALHKRIKKLYKVPDFPSKRLPNWRTRGLEQRRQGLEAYIQGILYLNQEVPKELLEFLRLRHFPTDPKASNWG", "protein production": "not failed"}, {"sequence": "MLFDEKEILAITRWAKLYANQSPDRILLGSNDIPPEYRAAVATQIELWPRLRNKLPQWPGISSLYIPSRLSLEQSSGAVTSSYKSRFIREGTKVVDLTGGLGIDFIALMSKASQGIYIERNDETAVAARHNIPLLLNEGKDLNILTGDFKEYLPLIKTFHSDYIYVDPARRSGADKRVYAIADCEPDLIPLAAELLPFCSSILAKLSPMIDLWDTLQSLPHVQELHVVAAHGEVKELLVRMSLNEATIPPEKVPIHAVNLLSEDTVIPFIFTMEEERSISVPYADSIDKYVYEPHTALFKAGAFKTVAYRLGLRKLHPNSHLYTSEAYESAFPGRTFVLEEIIPFSTSVLKQLGKVVPRASISCRNFPLSPIELRQRSKMADGGEKTLMGTTMADGKKVLLLLRKAE", "protein production": "failed"}, {"sequence": "MLFIPPPLLCLFIAIAMYFLPKIASYSVHFSVIVFVISLSFLIALSSVMQSLYVKPPLILVTLKAQQN", "protein production": "failed"}, {"sequence": "MLFKRPDTETLYFALVNKDPAYEGVAYVCVTSTKIFCRFTCTARKPKIENCRFRETITECLEAGFRPCKRCKPMLSYGTPDGTVTALLTALENEPARRWREEDVVALGHDPSTVRRSFKRRFGMSFLEIARLRRVGDAAESLASGEAVIGAQIDAGYESGSGFRSAINQLFGTSPAAMKGRGFLKGDWIDTPIGPMLAVADDHALHLLEFADRPALPAELKRLKARTGADMVLGRTAVTGQIAAELAAYFAGRSGSFETRLAGHGTPFERDVWRNLREIPAGEIVSYSSLATAMERPTAVRAVARANGANQLAIVVPCHRVLGADGSLTGYGGGLWRKKWLIEHERRMARGLEHHHHHH", "protein production": "not failed"}, {"sequence": "MLFSIVVHQMILFFSILLVGNVAAKQGVIQENYLPDLAKLVSKIFLPVLIFYMTYAGTTRQMVWENAAMIGLAALFYVVISAVTWIIAKGLRPAGDKAKVFQFAFIFGNTGFVGVPLLIALFPKDGILYLALFSIVDQLLFWTYGVYLATASDKKAKITLKSFVNPNIVAIALALIFIMIGAKLPTVIDDTLQTIKNAVGAMAMIYLGALIFYSDWKTAFKTKDLYFGIVVKMIILPILLGKLLLMTGLPNNMIWSMIILMSLPTMTVVPMIAKLYGHEGAYAAGITAATLAVSIVTIPVVVFFTT", "protein production": "failed"}, {"sequence": "MLFSSASFVPIVRRMSRPTILPAYILATLPLVMALLATAVSIGTGDEVVNFFRQYRQAHPALTACMQVITDFGNPLLYLVYGAIFFRARKRGDRHDMRFVAVYIVVQLLVSFLAVRILKIGFGMPRPGTEGPAIPFSFKGVYNSFPSGHTTEIVGAVVPLAWRCKALLPTLALGIYMGIVGYSRIYLGMHHITDVFAGLLLGSVAAWIIHRLADRTPS", "protein production": "failed"}, {"sequence": "MLFYLYVTRCKQLLNYNNMETDNGDKEKSEEDDLCALKDALEAVILFQGLSEYQKKLMFPNLKNLGAETIKELIDEWKELNVEELNLNIKKQTFFTKFANASWSLMLLIQQENNFCFWMFYVIPTSLFFVCCVLLHLLNDGS", "protein production": "failed"}, {"sequence": "MLGLHGRKPAQVIVEPVAKLMIKLKVTPNQLTLVSAGLTVGVALLLIPTGHLIWAAVLTGLFAAFDMIDGTVARMQGGGTKFGATLDATCDRITDGALFGAITWWLVYSYDAPQALVAASLVCLVASQVISYVKARGEASGFTMDGGLVERPERLIVSLVGLGLTGMGVPYAIDVALWALAAGSIYTVVQRLVMAGKSPLAKEFTKAPAGAKADYSNTK", "protein production": "failed"}, {"sequence": "MLGLVLLYVGIVLISNGICGLTKVDPKSTAVMNFFVGGLSIICNIVVITYSALHPTAPVEGAEDIAQVSHHLTSFYGPATGLLFGFTYLYAAINHTFGLDWRPYSWYSLFVAINTIPAAILSHYSDMLDDHKVLGITEGDWWAIIWLAWGVLWLTAFIENILKIPLGKFTPWLAIIEGILTAWIPAWLLFIQHWV", "protein production": "failed"}, {"sequence": "MLGSIFTASAVVMILLGLGMLTVFTQRLVDQKIDIASSEIDRARVIVEEQITASGASTSVQARVNSARAALSSLGTSGGTETNAAYDPVVLVNNDDLVVSPEGYQIPERLRYFVSENQVSYQFSSIDQGDGSSYQALIIGTPTESDIPNLQVYLVFSMESDESSLALMRGLLSAALLIVVVLLVGIAWLATQQVTAPVRSASRIAERFAQGKLRERMVVEGEDEMARLAVSFNAMAESLSAQITKLEEYGNLQRQFTSDVSHELRTPLTTVRMAADLIADSEDELSPGARRASQLMNRELDRFESLLSDLLEISRHDAGVAELSTALHDVRIPVRSALEQVQHLATELDVELLVNLPEEAINIQGDSRRIERIIRNLLANAIDHSKGLPVELKVADNVDAVAIVVIDHGVGLKPGQDELVFNRFWRADPSRVRHSGGTGLGLAISREDAMLHGGNLDAAGTIGVGSIFRLVLPKEPHGNYREAPIPLIAPETPWEGEQQ", "protein production": "failed"}]}]}
